Experimental data from patent US20220089776A1 (OREGON HEALTH AND SCIENCE UNIVERSITY, published 2022).

Assays:
[1] = biological target: T1, human blood protein factor XII (FXII) (human, UniProt P00748 20-615); assay: cell-based or functional assay
T1 sequence (looked up): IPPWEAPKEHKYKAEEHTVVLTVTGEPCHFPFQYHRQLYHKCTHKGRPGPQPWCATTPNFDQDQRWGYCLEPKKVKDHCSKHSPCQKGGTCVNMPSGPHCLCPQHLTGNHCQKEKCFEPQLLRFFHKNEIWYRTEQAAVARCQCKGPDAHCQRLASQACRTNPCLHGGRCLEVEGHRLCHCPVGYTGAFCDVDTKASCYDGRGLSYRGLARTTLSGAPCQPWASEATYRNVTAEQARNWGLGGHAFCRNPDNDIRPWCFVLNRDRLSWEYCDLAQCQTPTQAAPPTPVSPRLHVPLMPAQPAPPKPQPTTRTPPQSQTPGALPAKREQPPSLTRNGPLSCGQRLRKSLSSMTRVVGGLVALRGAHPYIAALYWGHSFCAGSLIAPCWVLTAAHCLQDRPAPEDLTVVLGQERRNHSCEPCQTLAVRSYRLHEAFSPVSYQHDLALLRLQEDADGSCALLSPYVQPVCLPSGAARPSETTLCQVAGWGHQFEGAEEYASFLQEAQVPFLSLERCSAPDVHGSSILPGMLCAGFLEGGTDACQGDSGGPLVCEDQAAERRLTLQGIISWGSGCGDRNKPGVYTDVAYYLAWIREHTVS

rat FXII = biological target: T2, rat FXII (rat, UniProt D3ZTE0 20-595); assay: Western blot of platelet-poor plasma, non-reduced SDS-PAGE
T2 construct: mature; Plasma protein
T2 sequence (looked up): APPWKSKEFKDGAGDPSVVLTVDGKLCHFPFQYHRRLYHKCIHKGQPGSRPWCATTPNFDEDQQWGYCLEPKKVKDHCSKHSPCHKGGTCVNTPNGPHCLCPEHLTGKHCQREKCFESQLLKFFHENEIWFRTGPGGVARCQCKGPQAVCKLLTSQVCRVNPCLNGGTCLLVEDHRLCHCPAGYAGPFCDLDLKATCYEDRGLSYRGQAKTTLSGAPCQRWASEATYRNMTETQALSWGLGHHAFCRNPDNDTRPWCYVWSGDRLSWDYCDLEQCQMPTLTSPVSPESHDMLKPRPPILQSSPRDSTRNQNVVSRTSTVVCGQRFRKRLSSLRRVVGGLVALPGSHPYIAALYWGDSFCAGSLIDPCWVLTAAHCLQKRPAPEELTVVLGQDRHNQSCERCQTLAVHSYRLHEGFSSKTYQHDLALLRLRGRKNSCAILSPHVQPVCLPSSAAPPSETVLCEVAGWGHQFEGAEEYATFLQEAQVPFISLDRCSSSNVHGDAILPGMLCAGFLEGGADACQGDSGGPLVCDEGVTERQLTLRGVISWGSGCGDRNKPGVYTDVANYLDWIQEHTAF

[2] = biological target: T3, human activated FXII (FXIIa) (human, UniProt P00748 20-615, limits assumed); assay: cell-based or functional assay
T3 sequence (looked up): T1 sequence (looked up)

[3] = biological target: T1, human blood protein factor XII (FXII); assay: cell-based or functional assay; remark: listed apart in the source
rabbit FXII = biological target: T4, rabbit FXII (rabbit, UniProt G1SIB7 20-617); assay: Western blot of platelet-poor plasma; primary antibody murine 5C12
T4 construct: Plasma protein
T4 sequence: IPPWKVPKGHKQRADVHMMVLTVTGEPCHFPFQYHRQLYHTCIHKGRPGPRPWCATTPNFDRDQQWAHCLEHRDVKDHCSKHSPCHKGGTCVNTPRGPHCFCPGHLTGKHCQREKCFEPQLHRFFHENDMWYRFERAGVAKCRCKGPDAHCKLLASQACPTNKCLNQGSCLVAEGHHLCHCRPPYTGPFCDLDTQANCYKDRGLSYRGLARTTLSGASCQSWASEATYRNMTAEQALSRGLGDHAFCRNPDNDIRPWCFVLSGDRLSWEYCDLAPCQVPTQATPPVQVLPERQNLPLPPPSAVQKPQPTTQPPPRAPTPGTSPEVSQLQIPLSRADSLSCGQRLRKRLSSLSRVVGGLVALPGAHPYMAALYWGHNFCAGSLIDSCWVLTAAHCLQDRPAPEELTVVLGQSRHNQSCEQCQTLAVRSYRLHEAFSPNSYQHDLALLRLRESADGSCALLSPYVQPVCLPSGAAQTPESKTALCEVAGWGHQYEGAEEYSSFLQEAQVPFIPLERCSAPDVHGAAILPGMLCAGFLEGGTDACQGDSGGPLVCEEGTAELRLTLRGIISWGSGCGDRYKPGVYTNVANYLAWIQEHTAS
Text: FIG. 3A-3C: Species specificity of 5C12. (FIG. 3A) Western blots of platelet poor plasmas from different species (indicated above each lane) size fractionated by SDS-PAGE […]. Species included in alphabetical order: African green monkey, baboon, beagle, cat, cattle, chicken, cynomolgus monkey, dog, elephant, giant anteater, horse, human, human deficient in FXII, llama, marmoset, pig, rabbit, raccoon, rat, red kangaroo, rhesus macaque and tiger. Human plasma and human deficient in FXII plasma were used in all gels as a positive and negative control, respectively. […] 5C12 also recognizes both the alpha (comprising both the light and heavy chain of FXII) and the beta (comprising only the light chain and a nonapeptide fragment of the heavy chain) form of activated FXII (FXIIa) (FIG. 3C). The primary antibody for all Western blots was murine 5C12, the secondary antibody was goat-anti-mouse polyclonal.

[4] = biological target: T1, human blood protein factor XII (FXII); assay: cell-based or functional assay; remark: listed apart in the source

B1: mouse monoclonal antibody 5C12 (antibody, mouse IgG1, kappa, V domains shown)
VH: DVQLQESGPDLVKPSQSLSLTCTVTGYSITSGYSWHWIRQFPGNNLEWMGYIQYSGNTNSNPSLKSRISITRDTSKNQFFLHLNSVTTEDTATYYCARWGSFDYWGQGTTLTVSS
VL: QIVLTQSPAIMSASPGEKVTMTCSASSSVNYMHWYQQKSGTSPKRWIYDTSKLASGVPARFSGSGSGTSYSLTISSMEAGDAATYYCQQWSGNPPTFGGGTILEIKR
notes: Purified from hybridoma; also called AB053; 5C12 MAb
[1]
  IC50 (read off the curve): FXIIa amidolytic activity after activation of 50 nM FXII with short polyphosphates, PK and HK: ~10 nM
Rat FXII
  binding result: no binding
[2]
  IC50 (read off the curve): amidolytic activity of 20 nM FXIIa: ~7 nM
[3]
  IC50 (read off the curve): FXIIa amidolytic activity after activation of 50 nM FXII with long polyphosphates, PK and HK: ~10 nM
Rabbit FXII
  binding result: no binding
[4]
  IC50 (read off the curve): FXIIa amidolytic activity after activation of 40 nM FXII with 1 µg/ml dextran sulfate: ~6 nM
